Laboratory results: the nanobody polyreactivity screen of Harvey et al. (2022)

Experiment: yeast display, Sf9 membrane polyspecificity reagent, FACS + sequencing; frameworks hold sequencing errors
Procedure, shortened: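 Synthetic nanobody libraries on Saccharomyces cerevisiae BJ5465 were galactose-induced for 36–48 hours, stained 1 hour at 4 °C with 10% biotinylated, detergent-solubilized Sf9 membrane reagent and enriched on streptavidin microbeads. FACS then separated cells into low and high (top ~1%) gates by anti-HA (expression) and streptavidin (reagent binding) fluorescence. Genes were colony-PCR amplified, MiSeq 2 × 250 sequenced and CDR-length filtered. A clone's polyreactivity label is that of its gate of origin.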
For “QVQLVESGGGLVQAGGSLRLSCAASGSIFWPYAMGWYRQAPGKERELVAAITWSGSSTYYADSVKGRFTISRDNAKNTVYLQMKSLKPEDTAVYYCAKRGWGIYDYWGQGTQVTVSS”, the “polyreactivity (PSR sort gate)” value was “low polyreactivity”.
In the case of “QVQLVESGGGLVQAGGSLRLSCAASGSTFSKYAMGWYRQAPGKERELVAAITWRASTYYADSVKGRFTISRDNAKNTVYLQMNSLKPEDTAVYYCAVRQSQRGGTSSNTSNDYWGQGTQVTVSS”, the “polyreactivity (PSR sort gate)” value is reported as “high polyreactivity”.
With “QVQLVESGGGLVQAGGSLRLICAASGYTFFFYAMGWYRQAPGKEREFVAAITWRGDSTYYADSVKGRYTISRDNAKNTVYLQMNSLKPEDTAVYYCAADPGFTWSRRMDYWGHGTQVTVSS” the “polyreactivity (PSR sort gate)” value was “low polyreactivity”.
In the case of “QVQLVESGGGLVQAGGSLRLSCAASGRIFYLYTMGWYRQAPGKEREFSTYYADSVKGRFTISRDNAKNTVYLQMNSLKPEDTAVYYCNKGSDGFTTGEGDYWGQGTQVTVSS”, the “polyreactivity (PSR sort gate)” value is reported as “low polyreactivity”.
In the case of “QVQLVESGGGLVQAGGSLRLSCAASGFIFGSYAMGWYRQAPGKERELVAAITSGTTTYYADSVKGRFTISRDNAKNTVYLQMNSLKPEDTAVYYCAATLIYHYWQLFIISTMGYWGQGTQVTVSS”, the “polyreactivity (PSR sort gate)” value is reported as “low polyreactivity”.
With “QVQLVESGGGLVQAGGSLRLSCAASGRIFVGNAMGWYRQAPGKERELVAAISRSGGRTYYADSVKGRFTISRDNAKNTVYLQMNSLKPEDTAVYYCYTRVYAGKYDYWGQGTQVTVSS” the “polyreactivity (PSR sort gate)” value was “high polyreactivity”.
For “QVQLVESGGGLVQAGGSLRLSCAASGRTFARYAMGWYRQAPGKERELVAAISWSGGSTYYADSVKGRFTISRDNAKNTVYLQMNSLKPEDTAVYYCAAGYGARSAIFDVYGTNEGDYWGQGTQVTVSS”, the “polyreactivity (PSR sort gate)” value was “high polyreactivity”.
In the case of “QVQLVESGGGLVQAGGSLRLICAASGPTFYYYAMGWYTQAPGKERELVARISRGGSTNYADSVKGRFTISRDNAKNTVYLQMNSLKAEDTAVYYFAITISYTGGYWGYDYWGQGTQVTVSS”, the “polyreactivity (PSR sort gate)” value is reported as “high polyreactivity”.
For “QVQLVESGGGLVQAGGSLRLSCAASGSIFRSYAMGWYRQAPGKERELVAAIRGGGSTNYADSVKGRFTISRDNAKNTVYLQMNSLKPEDTAVYYFAADKKTKVDWGQGTQVTVSS”, the “polyreactivity (PSR sort gate)” value was “high polyreactivity”.
For “QVQLVESGGGLVQAGGSLRLSCAASGSTLYRYAMGWYRQAPGQERELFATIRSGVNTNYADSVKGRFTISRDNAKNTVYLQMNSLKPEDTAVYYCNARTVYGVYWGRYDYWGQGTQVTVSS”, the “polyreactivity (PSR sort gate)” value was “high polyreactivity”.
For “QVQLVESGGGLVQAGGSLRLSCAASGFIFRVNAMGWYRQAPGKEREFVAAITYSGGRTSYADSVKGRFTISRDNAKNTVYLQMNSLKPEDTAVYYCAALLYKPSVHAKYYYWGQGTQVTVSS”, the “polyreactivity (PSR sort gate)” value was “high polyreactivity”.
With “QVQLVESGGGLVQAGGSLRLSCAASGSTFSTYAMGWYRQAPGKERELVAAIRWSGGSTYYADSVKGRFTISRDNAKNTVYLQMNSLKPEDTAVYYCAKGIRRWYGGSDYWGQGTQVTVSS” the “polyreactivity (PSR sort gate)” value was “low polyreactivity”.
In the case of “QVQLVESGGGLVQAGGSLRLSCAASGRTFGYYAMGWYRQAPGKERELVAAISNSGGRTYYADSLKGRFTISRDNAKNTVYLQMNSLKPEDTAVYYCAAVVSYRFDYWGQGTQVTVSS”, the “polyreactivity (PSR sort gate)” value is reported as “high polyreactivity”.
For “QVQLVESGGGLVQAGGSLRLSCAASGRTFYRNVMGWYRQAPGKVRELVAVITSGGRTNYADSVKGRFTISRDNAKNTVYLQMNSLKPEDTAVYSCNTALSSRSNKMYYWGQGTQVTVSS”, the “polyreactivity (PSR sort gate)” value was “high polyreactivity”.
With “QVQLVESGGGLVQAGGSLRLSCAASGRIFYYYAMLWYRQAPGKERELVAAIRRGGSTNYADSVKGRFTISRDNAKNTVYLQMNSLKPEETAVYYCAARSARLEYYYWGQGTQVTVSS” the “polyreactivity (PSR sort gate)” value was “high polyreactivity”.
With “QVQLVESGRGLVQAGGSLRLRCAASGYTFTRYAMGWYRQAPRKESELVAAISTSGGRTYYSDSEKGRFTISRDNAKNTVYLQMNRLKPEDTAVYSCAAPIRDGRYDYWGQGTQVTVSS” the “polyreactivity (PSR sort gate)” value was “high polyreactivity”.
